Assay results: publication PMC5750218, “Protein-inspired antibiotics active against vancomycin- and daptomycin-resistant bacteria” (Nature Communications, 2018)
Values after ≈ are worked out from the molar mass of the structure shown. Like-named read-outs stand apart in the source and are kept apart here.

Legend:
[1] = test system: S. aureus ATCC 43300 MRSA; assay: microbe, parasite or virus in culture; type: cell-based, Staphylococcus aureus
Method: (§1) The compounds, along with standard antibiotics were serially diluted twofold across the wells of 96-well non-binding surface (NBS) polystyrene plates (Corning 3641). […] Standards ranged from 64 to 0.03 µg mL^−1 and compounds from 8 to 0.003 µg mL^−1 with final assay volumes of 100 µL per well. Gram-positive bacteria were cultured in Mueller Hinton broth (MHB) (Bactolaboratories, Cat. no. 211443) at 37 °C overnight. A sample of each culture was then diluted 40-fold in fresh MHB and incubated at 37 °C for 2–3 h. The resultant mid-log phase cultures were added to the compound-containing 96-well plates to give a final cell density of 5 × 10^5 colony forming unit (CFU) mL^−1. All the plates were covered and incubated at 37 °C for 24 h. MICs were the lowest concentration showing no visible growth.

S. pneumoniae ATCC 33400 = assay: microbe, parasite or virus in culture; type: cell-based, Streptococcus pneumoniae
Method: as §1

[2] = test system: S. pneumoniae ATCC 700677 MDR; assay: microbe, parasite or virus in culture; type: cell-based, Streptococcus pneumoniae
Method: as §1

Cytotoxicity MTT assay = type: cell-based, human; conditions: human
Outline: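 Duplicate wells were used, with viability calculated against untreated and positive-control wells. Readout was MTT reduction: 2 h with 0.4 mg mL^−1 MTT, formazan dissolved in DMSO, absorbance at 570 nm. Before that, compound was applied 24 h at 37 °C over 100–0.046 µM (threefold dilutions) to HepG2 or HEK293 cells seeded 24 h earlier in DMEM/1% FBS.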

[3] = In vivo pharmacokinetics in mice; conditions: mouse; for level at […]: 0.250 h; for level at 0.5 h: 0.500 h; for MRT inf: read-out: MRT0-inf; for MRT last: read-out: MRT0-last
Method: Performed by WuXi AppTec (Shanghai) Co., Ltd. Seven to 9-week-old male CD1 mice (SLAC Laboratory Animal Co. Ltd., Shanghai, China) weighing 25–35 g were acclimated for approximate 3 days before being used in the study. Animals are group housed during acclimation and in-life study in compliance with the National Research Council 'Guide for the Care and Use of Laboratory Animals.' The animal room environment is controlled (target conditions: temperature 18 to 26 °C, relative humidity 30–70%, 12 h artificial light and 12 h dark) with temperature and relative humidity monitored daily. Animals were deprived of food for approximately 16 h before formulation administration then allowed access to Certified Rodent Diet (Catalogue # M-01F, Shanghai SLAC Laboratory Animal Co. Ltd.) ad libitum 4 h post dosing. Water was autoclaved before being provided to the animals ad libitum. Formulations of compounds were prepared on the morning of the dosing day. The formulation for the IV group was filtered with filter of 0.22 μm before being dosed to animals. After dose formulation preparation, duplicate 50 μL aliquots were removed from each dose formulation for use in dose validation. For each compound studied, three mice were dosed intravenously (IV) administered to each animal via tail vein per facility SOPs using test article formulated in deionised water at 1 mg mL^−1 with a dose volume of 2 mg mL^−1, providing a dose of 2 mg mL^−1 (based on free base concentration). An additional three mice were dosed subcutaneously (SC) administered to each animal via subcutaneous bolus on each animals’ back per facility SOPs using test article formulated in deionised water at 2 mg mL^−1 with a dose volume of 5 mg mL^−1, providing a dose of 10 mg mL^−1. All animals were killed at the last study time point (100% CO2 was introduced into the animal box).
Plasma samples were collected as the following target times after each dose administration: IV Sampling Time points (hours post dosing): 0, 0.083, 0.25, 0.5, 1, 2, 4, 8 and 24. SC Sampling Time points (hours post dosing): 0, 0.25, 0.5, 1, 2, 4, 8 and 24. Approximately 30 μL blood was obtained via submandibular or saphenous vein for the first several time points. For the last time point, samples were collected via cardiac puncture while the mouse was under anaesthesia. All blood samples were transferred into pre-chilled plastic microcentrifuge tubes containing 2 μL of ethylenediaminetetraacetic acid dipotassium salt (K2-EDTA) (0.5 M) as anticoagulant and placed on wet ice until centrifugation. Harvested blood samples were centrifuged within 30 min of collection at 7000 rpm (8546 × g) 4 °C for about 10 min. After centrifugation, plasma was transferred into another pre-labelled and pre-chilled polypropylene microcentrifuge tubes, then quick-frozen over dry ice and stored at −70 ± 10 °C until LC/MSMS analysis.
LC-MS/MS methods for the quantitative determination of the test article in mouse plasma were developed with an internal standard. Benchtop stability of the compound in mouse plasma was determined at mid QC concentrations in triplicate at 0, 2 h at room temperature. The stability was determined using mean peak area ratio of T2/T0 sample. If the mean peak area ratio is within 80%~120%, the test article in the plasma is considered stable for 2 h at room temperature. […] A set of QC samples consists of three concentration levels (low, middle and high). The sample analysis was performed concurrently with a set of calibration standards and two sets of QC samples using the LC-MS/MS method.
Plasma concentration vs. time data from individual animals was analysed by WinNonLin non-compartmental model (Phoenix WinNonlin 6.2.1, Pharsight, Mountain View, CA). Pharmacokinetic parameter C 0, T ½, CL, Vdss, C max, T max, AUC0-last, AUC0-inf, %F, MRT0-last, MRT0-inf and graphs of plasma concentration vs. time profile were derived.

[4] = male, CD1, plasma, 2 mg/kg IV, read-out: Plasma concentration, Mean IV
[5] = male, CD1, plasma, 10 mg/kg SC, read-out: Plasma concentration, Mean SC

CN[C@H]1C(=O)N[C@@H]2Cc3ccc(cc3)Oc3cc4cc(c3O[C@@H]3O[C@H](C(=O)O)[C@@H](O)[C@H](O)[C@H]3NC(=O)CCCCCCCCC(C)C)Oc3ccc(cc3Cl)[C@@H](O)[C@@H]3NC(=O)[C@H](NC(=O)[C@@H]4NC(=O)[C@@H](NC2=O)c2cc(cc(O)c2Cl)Oc2cc1ccc2O)c1ccc(O)c(c1)-c1c(O[C@H]2O[C@H](CO)[C@@H](O)[C@H](O)[C@@H]2O)cc(O)cc1[C@@H](C(=O)NCCCN(C)C)NC3=O [Compound 3, Dalbavancin]
MIC S. aureus ATCC 43300 MRSA ([1]; 1% Survanta): 0.06 µg/mL (≈ 0.033 µM) | MIC S. aureus ATCC 43300 MRSA ([1]; 5% Survanta): 0.125 µg/mL (≈ 0.0688 µM) | MIC S. pneumoniae ATCC 33400 (S. pneumoniae ATCC 33400; 1% Survanta): 0.06 µg/mL (≈ 0.033 µM) | MIC S. pneumoniae ATCC 33400 (S. pneumoniae ATCC 33400; 5% Survanta): 0.125 µg/mL (≈ 0.0688 µM) | MIC S. pneumoniae ATCC 33400 (S. pneumoniae ATCC 33400; no added Survanta): 0.06 µg/mL (≈ 0.033 µM) | MIC S. pneumoniae ATCC 700677 MDR ([2]; 1% Survanta): 0.06 µg/mL (≈ 0.033 µM) | MIC S. pneumoniae ATCC 700677 MDR ([2]; no added Survanta): 0.06 µg/mL (≈ 0.033 µM)

CN[C@H](CC(C)C)C(=O)N[C@H]1C(=O)N[C@@H](CC(N)=O)C(=O)N[C@H]2C(=O)N[C@H]3C(=O)N[C@H](C(=O)N[C@H](C(=O)O)c4cc(O)cc(O)c4-c4cc3ccc4O)[C@H](O[C@H]3C[C@](C)(N)[C@@H](O)[C@H](C)O3)c3ccc(c(Cl)c3)Oc3cc2cc(c3O[C@@H]2O[C@H](CO)[C@@H](O)[C@H](O)[C@H]2O[C@H]2C[C@](C)(NCc3ccc(-c4ccc(Cl)cc4)cc3)[C@@H](O)[C@H](C)O2)Oc2ccc(cc2Cl)[C@H]1O [Compound 5, Oritavancin, reference compound]
CC50 at 24 h (Cytotoxicity MTT assay; 24 h, MTT, 1% FBS, read-out: Cytotoxicity CC50 HEK293): 29 µM

CCCCCCCCCCC(=O)N[C@@H](CCCCN)C(=O)N[C@@H](CCCCN)C(=O)N[C@@H](CCCCNC(=O)[C@H]1NC(=O)[C@H]2NC(=O)[C@H](NC(=O)[C@@H]3NC(=O)[C@H](CC(N)=O)NC(=O)[C@H](NC(=O)[C@@H](CC(C)C)NC)[C@H](O)c4ccc(c(Cl)c4)Oc4cc3cc(c4O[C@@H]3O[C@H](CO)[C@@H](O)[C@H](O)[C@H]3O[C@H]3C[C@](C)(N)[C@H](O)[C@H](C)O3)Oc3ccc(cc3Cl)[C@H]2O)c2ccc(O)c(c2)-c2c(O)cc(O)cc21)C(N)=O [Compound 21, nC10CO-KK-K(Vancomycin)-NH2]
MIC S. aureus ATCC 43300 MRSA ([1]; 1% Survanta): 0.007 µg/mL (≈ 0.0035 µM) | MIC S. aureus ATCC 43300 MRSA ([1]; 5% Survanta): 0.03 µg/mL (≈ 0.015 µM) | MIC S. aureus ATCC 43300 MRSA ([1]; no added Survanta): 0.015 µg/mL (≈ 0.0075 µM) | CC50 at 24 h (Cytotoxicity MTT assay): 113 µM | level at 5 min ([3]; male, CD1, plasma, 2 mg/kg IV, 5 min, n=3, read-out: Plasma concentration, Mean IV): 10000 ng/mL | level at […] [3, 4]: 5680 ng/mL | level at 0.5 h [3, 4]: 4330 ng/mL | level at 1 h [3, 4]: 2470 ng/mL | level at 2 h [3, 4]: 1940 ng/mL | level at 4 h [3, 4]: 758 ng/mL | level at 8 h [3, 4]: 49.4 ng/mL | level at […] ([3]; male, CD1, plasma, 10 mg/kg SC, n=3, read-out: Plasma concentration, Mean SC): 944 ng/mL | level at 0.5 h [3, 5]: 1440 ng/mL | level at 1 h [3, 5]: 2950 ng/mL | level at 2 h [3, 5]: 3140 ng/mL | level at 4 h [3, 5]: 2320 ng/mL | level at 8 h [3, 5]: 1370 ng/mL | level at 24 h ([3]; male, CD1, plasma, 10 mg/kg SC, 24.0 h, read-out: Plasma concentration, Mean SC): 45 ng/mL | AUC0-inf/AUC0-last ([3]; IV 2 mg kg-1): 101% | Tlast ([3]; IV 2 mg kg-1): 8 h | AUC0-inf/AUC0-last ([3]; SC 10 mg kg-1): 101% | Tlast ([3]; SC 10 mg kg-1): 24 h | bioavailability ([3]; plasma, subcutaneous, SC 10 mg kg-1 vs IV 2 mg kg-1): 43% | AUC(0-inf) ([3]; plasma, IV 2 mg kg-1): 10900 ng·h/mL | AUC(0-t) ([3]; plasma, IV 2 mg kg-1): 10800 ng·h/mL | C0 ([3]; plasma, IV 2 mg kg-1): 14200 ng/mL | clearance ([3]; plasma, IV 2 mg kg-1): 3.13 mL/min/kg | half-life ([3]; plasma, IV 2 mg kg-1): 1.12 h | MRT inf ([3]; plasma, IV 2 mg kg-1): 1.7 h | MRT last ([3]; plasma, IV 2 mg kg-1): 1.6 h | Vd ([3]; plasma, IV 2 mg kg-1, read-out: Vdss): 0.31 L/kg | AUC(0-inf) ([3]; plasma, SC 10 mg kg-1): 23400 ng·h/mL | AUC(0-t) ([3]; plasma, SC 10 mg kg-1): 23100 ng·h/mL | Cmax ([3]; plasma, SC 10 mg kg-1): 3560 ng/mL | Tmax ([3]; plasma, SC 10 mg kg-1): 2.33 h | half-life ([3]; plasma, SC 10 mg kg-1): 3.4 h | MRT inf ([3]; plasma, SC 10 mg kg-1): 6.3 h | MRT last ([3]; plasma, SC 10 mg kg-1): 6 h
